Results as given in the nanobody polyreactivity screen of Harvey et al. (2022).

Assay: yeast display, Sf9 membrane polyspecificity reagent, FACS + sequencing; frameworks hold sequencing errors
In short: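 Synthetic nanobody libraries on Saccharomyces cerevisiae BJ5465 were galactose-induced for 36–48 hours, stained 1 hour at 4 °C with 10% biotinylated, detergent-solubilized Sf9 membrane reagent and enriched on streptavidin microbeads. FACS then separated cells into low and high (top ~1%) gates by anti-HA (expression) and streptavidin (reagent binding) fluorescence. Genes were colony-PCR amplified, MiSeq 2 × 250 sequenced and CDR-length filtered. A clone's polyreactivity label is that of its gate of origin.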

Sequence | polyreactivity (PSR sort gate)
QVQLVESGAGLVQAGGSLRLSCAASGSIFTENSMGWYRQAPGKEREMVAAIRWDDGHTYYADSVKGRFTISRDNAKNTVYLQMNSLKPEDTAVYYCNADKWSSTDDWLYDYWGQGTQVTVSS | low polyreactivity
QVQLVESGGGLVQAGGSLRLSCAASGSIFPRNTMGWYRQAPGKEREFVAAITTTGSRTYYADSVKGRFTISRDNAKNTVYLQMNSLKPEDTAVYYCAATRRWYPTKLYGYWGQGTQVTVSS | high polyreactivity
QVQLVESGGGLVQAGGSLRLSCAASGRIFGRNAMGWYRQAPGKEREFVAGITTNGGRTYYADSVKGRFTISRDYAKNSVFLQMNSLIPEDTAVYYWAAVRYYFLKYYYWGQGTQVTVSS | high polyreactivity
QVQLVESGGGLVQAGGSLRLSCAASGSTFGFYAMGWYRQAPGKERELVAAISRGGSTNYADSVKGRFTISRDNAKNTVYLQMNSLKPEDTAVYYCAKAYHATSDYWGQGTQVTVSS | low polyreactivity
QVQLVESGGGLVQAGGSLRLSCAASGITFGVNTMGWYRQAPGKERELVAAITWRGGSTYYADSVKGRFTISRDNAQNTVYLQMNSLIPEDTAVYYCAAQPIWPGGQELDYWGQGTQVTVSS | low polyreactivity
QVQLVESGGGLVQAGGSLRLSCAASGFTFGENAMGWYRQAPGKERELVAAITGGTDTNYADSVKGRFTISRDNAKNTVYLQMNSLKPEDTAVYYCAAYVPHFAPLGGGGGYDYWGEGTQVTVSS | low polyreactivity
QVQLVESGGGLVQAGGSLRLSCAASGSIFRKYAMGWYRQAPGKERELVAVITTDGSTNYADSVKGRFTISRDNAKNTVNLQMNSLKPEDSAVYYCNAVRSSIGTDNDFWGQGTLVTVSS | low polyreactivity
QVQLVESGGGLVQAGGSLRLSCAASGSIFSSYALGWYRQAPGKVRELVAAITKRADRTNYADSVKGRFTISRDNAKNTVYLQMNSLKPEDTAVYYCNAEGQNDHPSNGYISYKYDYWGQGTQVTVSS | low polyreactivity
QVQLVESGGGLVQAGGSLRLSCAASGSIFWYYAMGWYRQAPGKERELVASISRRGGSTYYADSVKGRFTISRDNAKNTVYLQMNSLKPEDTAVYYCAAYSRTTCSTVQGTYDYWGQGTQVTVSA | low polyreactivity
QVQLVESGGGLVQAGGSLRLSCAATGSTFTFNAMGWYRQAPGKEREFVAAITASGGRTYYADSVKGRFTISRDNAKNTVYLQMNSLKPEDTAVYYCAADACLLGPGDFNYWGQGTQVTVSS | low polyreactivity
QVQLVESGGGLVQAGGSLRLSCAASGSTFDRNAMGWYRKAPGKERELVAAISKRSGSTYYADSVKGRFTISRDNAKNTVYLQMNSLKPEDTAVYYCAADRISYRGMGSWGQGTQVTVSS | high polyreactivity
QVQLVESGGGLVQAGGSLRLSCAASGIIFNTYAMGWYRPAPGKERELVAGIDYSGGGTSYADSVKGRFTISRDNAKNTVYLQMNSLKPEDTAVYYCAADAYSGAYFTYLGEIYDYWGQGTQVTVSS | low polyreactivity
QVQLVESGGGLVQAGGSLRLSCAASGRIFAVYAMGWYRQAPGKERELVATISSSGSTHYADSVKGRFTISRDNAKNTVYLQMNSLKPEDTAVYYCNAGGSELKLGYDYWGQGTQVTVSS | low polyreactivity
QVQLVESGRGLVQAGGSLRLSCAASGIIFKRYAMGWYRQAPGKERELVATINRDGRTSYADSVKGRFTSSRDNAKNTVYLQMHSLKPEDTAVYYCAATYLLERPTSKHPRYDYWGQGTQVTLSS | low polyreactivity
QVQLVESGGGLVQAARTLRISCAASGYIFQYNSMRWYRPAPGKERELVAPSRYRGTSTYYADSVKGRFTISRDNAKNTDYSQMNRLKPEDTAVYYCAADSVQGRGFFGYGYWGQGTHVTVSS | high polyreactivity
QVQLVESGGGLVQAGGSLPLSCAASGSIFDLYTMGWYRQAPGKEREMVASISSSGGSTYYADSVKGRFTISRDNAKNTVYLQMNSLKPEDTAVYYCAAVASYHAYQYYYWGQGTQVTVSS | high polyreactivity

Sequence | polyreactivity (PSR sort gate)
QVQLVESGGCLVQAGGSLRLSCAASGITFESNAMGWYRQAPGIEREFVAAISYDGGDTYYADSVKGRFTISRDNAKNTVYLEMTSLKTEDTAVFYCAAEPGWTMDYWGQGTQVTVSS | low polyreactivity
QVQLVESGGGLVQAGGSLRISCAASGSIFAWNAMGWYRQAPGKERELVAAISRSGGRTYYADSVKGRFTISRDNAKNTVYLQMNSLKPEDTAVYYCNAYGLRWASRLGYDYWGQGTQVTVSS | high polyreactivity
QVQLVESGGRLVQAGGSLRLSCAASGLIYSRYAMGGYRQAPGKEREFVATISWSGGSRYYADSVKGRFTISRDNAKNTVYLQMNSLKPEDTAVYYCATKKWYYPGDSKYYYWGQGTQVTVSS | high polyreactivity
QVQLVESGGGLVHAGGSLRLSCASSGSIFYYYAMGWYRQAPGKERELVASITSSGGTTSYADSVKGRYTISRDNAKNTVYLLMNSLKPEDTAVYYCNAQVYRYRIGYDYWGQCTQVTVSS | low polyreactivity
QVQLVESVGGLDQAGGSLRLSCAASGFTFYTNAMGWYRQAPGKEREFVAAISWSGTGTYYADSVKGRFTISRDNAKNTVYLQMYSLIPDDTAVYYCAARDRWRGGRKFDYWGQGTQVTVSS | high polyreactivity
QVQLVESGGGLVQAGGSLRLSCAASGRTFNTYAMGWYRQAPGKERELVAAISKRGGSTYYADSVKGRFTISRDNAKNTVYLQMNSLKPEDTAVYYCNAKGNVRMYWGQGTQVTVSS | high polyreactivity
QVQLVESGGGLVQAGGSLRLSCAASGYTFRYNALGWYRQAPGKERELVAAISYSRGSTYYADSVKGRFTISRDYAKYTVYLLMNSLKPEDTAVYYCAAQYLFSGHDYWGQGTQVTVSS | low polyreactivity
QVQLVESGGGLVQAGGSLRLSCAASGRIFKYYAMGWYRQAPGKERELVAAISARGGSTYYADSVKGRFTISRDNAKNTVYFQMNSLKPEDTAVYYCAAPYLTTQYERMYYWGQGTQVTVSS | high polyreactivity
QVQLVESGGGLVQAGGSLRLSCAASGYTFNYYAMGWYRQAPGKERELVAAIRSGGSTTYADSVKGRFTISRDNAKNTVYLQMNSLKPEDTAVYYCNADAGYWYRPAYDYWGQGTQVTVSS | low polyreactivity
QVQLQESGGGLVQAGGSLRLSCAASGSIYDDTYMGWYRQAPGKERELVATIDSGSTTNYADSVKGRITISRDNAKNTVYLQMNSLKPEDTGVYYCAAADSHIDYFDYWGQGTQVTVSS | low polyreactivity
QDQLVESGGGLVQAGGSLRLSCADSGYTFTSNDMGWYRQAPGKERELVAAITWSGGTTYYADSVKGRFTISRDNAKNNVYLQMNSLKPDDTAVYYCAAESTLPIIDRDDYWGQGTQVTVSS | low polyreactivity
QVQLVESGGGKVQAGGSLRLSCAASGLTFWSYAMGWYRQAPGKERELVAAISGTGGRTYYADSVKGRFTITRDNAKNTVYLQMTSLKPEDTAVYYCTARTWRWYFTFDYWGQGTQVNVSS | high polyreactivity
QVQLVESGGRLVQAGGSLRLSCAPSGRIFQPNVMGWSRQAPGKERELVAAIRSGSSTYYADSVKGRFTISRDNAKYSVYLQMNSLKPEDTAVYYCAARLFLPGYTRVNYLGQGTQVTVSS | high polyreactivity
QVQHVESGGGLVQAGGSLRLSCAASGFIFWYYAMGWYRKAPGKERELVAAISSRGGSTYYADSVKGRFTISRDNAKNTVYLQLNSLKPEDTAGYYCATPSKALPPHGRAILDYWGQGTQVTVSS | high polyreactivity
QVQLVESGGGLVQAGGSLRLSCDASGNTFHTNAMGWYRQAPGKERELVAAITGGGSTYYADSVKGRFTISRDNAKKTVYLQMNSLKPEDTAVYYCNTDVPYGLDVSDTIDYFYWGQGTKVTVSS | low polyreactivity
QVQLVESGGGLVQAGGSLRLSCAASGSIFKYYAMGWYRQARGKERELVAVITSGGSTYYADSVKGLFTISRDNAKNTVYLQMNSLKPEDTAVYYCAAGVRAYNWGEYDYWGQGTQVTVSS | low polyreactivity
